In patent publication US20110014616:

What was measured:
Experiment in all cases: cell_activity
[1] = system: CCR5-specific ZFN pair (synthetic construct); settings: K562, unsorted, Cel-1 assay; 37.5% after SSA sorting
[2] = system: Factor IX-specific ZFN pair (synthetic construct); settings: K562, unsorted, Cel-1 assay; 40.79% after SSA sorting
[3] = system: WAS-specific ZFN pair (synthetic construct); settings: K562, Cel-1 assay, day 3

CCR5 ZFN target site
activity [1]: 25 % NHEJ

Factor IX ZFN target site
activity [2]: 17.9 % NHEJ

WAS ZFN target site
activity [3]: 17.9 % NHEJ
